According to the RNAGym collection of RNA variant scans (doi:10.1073/pnas.2313332121):

B1: TPR t1 (parent)
chain: GACCAAUCUGCCCUCAGAGCUCGAGAACAUCUUCGGAUGCAGAGGAGGCAGGCUUCGGUGGCGCGAUAGCGCCAACGUCCUCAACCUCCAAUGCAUCCCACCACAUGAUGAUGCCUGAAGAGCCUUGGUUUUUUG

Variants of: B1
Assay: polymerase ribozyme fitness, log enrichment relative to wild type (log ratio); higher = more active; in vitro selection for triplet polymerase activity
In short: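 Mutant libraries of both subunits of a heterodimeric triplet polymerase ribozyme were PCR-built, transcribed, and selected once in triplicate, with frozen incubation at −7 °C and capture of gel-excised extended constructs on streptavidin beads before RT-PCR. Illumina sequencing of input and output libraries was filtered to genotypes with ≥10 input reads and ≥1 read per output. Fitness is the logarithm of genotype enrichment over wild-type enrichment, using inverse-variance-weighted replicate averages. The logarithm is base 2.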

Row | Variant | polymerase ribozyme fitness (log ratio)
1 | C40G G47U C64U G93U U129C U133G | -3.04
2 | G57A C79U C102G G107U C115G C124U U129G | -5.93
3 | G19U G61A C62U C124A U131C | -4.46
4 | C4G C73A | -1.43
5 | C13A G19A G113U | -3.81
6 | A6C G19C A43U A50C U96G | -4.2
7 | C62U U81G | -3.67
8 | C56A G61A | -1.51
9 | C11A C31G G47A U92C G120A U131A | -5.58
10 | G42U A46U C62U | -2.07
11 | A46U A74U | -0.906
12 | A41C G44A G58C G93C | -1.87
13 | U33C C72U | -3.04
14 | C8U A121G | 1.42
15 | G47U G117A | -3.33
16 | C3A U38G A103C A118G C123G | -6.41
17 | C72A C102A U125G | -2.01
18 | G60A G120C G128U | 0.061
19 | A43C G48C C123A | -1.93
20 | G47U G61C A90U G117C | -6.8
21 | A74C G117U | -2.81

Row | Variant | polymerase ribozyme fitness (log ratio)
22 | G60U U132C | -0.354
23 | U7G G52C A90C U130A | -1.64
24 | C15U A41U G69C C82A U112A C124A | -3.69
25 | C13G G19U C73U G113U | -5.86
26 | A41G C56G G69C U133G | -5.1
27 | C34G G35C G63U A111U | -5.76
28 | C76A C94A C101A | -2.64
29 | G45A G69U | 1.63
30 | C3A C53A C73U | -1.17
31 | A2C C11U G61A G120A | -0.476
32 | G36U C72U | -1.51
33 | G36C C79G C98U C115U C124U | -6.21
34 | G10A C70A G122A | -1.23
35 | C64U U129C | -0.708
36 | A46G A83G | -0.884
37 | A83C A91G A111G | -1.85
38 | G77U G120A | -0.148
39 | C4U C8G C53U | 0.711
40 | G47U C102U | -3.31
41 | C73U C99A C115A U125G | -6.08
42 | A6U C53G C114A U131C | -1.89

Row | Variant | polymerase ribozyme fitness (log ratio)
43 | G42U U125A | -1.61
44 | C12A G69A A90U U109A C115A | -7.7
45 | C12U C15A A43C C72U A108U C123G | -6.32
46 | G45U C49G C53U C88G | -0.226
47 | C34U G61C C94U C98U G120U G127U | -5.79
48 | C12G C62U A105C | -2.46
49 | A91G C94U U109A U112A | -6.42
50 | G48A C124G | 0.442
51 | C28U C49G | -3.16
52 | C4A C12G G117A G128C | -1.61
53 | A27C G47U U106A C124A U130A U133A | -3.86
54 | C62U C73U U81G A84C G113A | -3.57
55 | G10C G110U | -2.66
56 | C80U C82U U96A | -1.82
57 | C8G A29U C73A G120U | -0.106
58 | G63C C101U U130G | -0.981
59 | C62U G117C | -3.31
60 | A46U G71A C82G U87G | -1.78
61 | C15A A24U C70U G77C G110C | -6.25
62 | C72U C124U G135A | 2.03
63 | U78C C80A U116G G120C C123A | -1.86

Row | Variant | polymerase ribozyme fitness (log ratio)
64 | U7G A37U G47U U67G C70U | -7.04
65 | G45U C102A | -3.34
66 | U9G U21A G127A | -0.983
67 | C4U A41C A111U A119C | -6.22
68 | A75U C97U | -0.863
69 | G120C U130G | 0.395
70 | U9G G63U G128C | -3.23
71 | C56A G69U U78A A90C C97A A118U | -4.65
72 | C79A C115G | -2.56
73 | U116G A121C | -0.876
74 | C12U A37C A46U C62A | -2.96
75 | G44U G60C | -0.794
76 | A18U C94U C101A G110A | -6.65
77 | C28A G110C C115U U133A | -5.27
78 | C12U U125A U126C | -0.829
79 | A43G C56G G69U A108G C124A | -2.3
80 | G10C C11G U21A | 0.0374
81 | U59A C104A | -1.75
82 | A5G G57U U78G U106A G110A | -1.97
83 | A26U G60A | -3.74
